Article PMC5468090

Experiments:
Assay in all cases: SPR
[1] = system: XRCC4-Ala;XLF-Ala; settings: 1 uM each; described as similar to WT-WT; EMSA: 10 mM HEPES pH 8, 75 mM KCl, 0.5 mM EDTA, 0.5 mM DTT, 5% glycerol, RT 30 min, 200 ng DNA/10 ul; SPR: 20 mM HEPES pH 8, 75 mM KCl, 10% glycerol, 1 mM DTT …
[2] = system: XRCC4-Ala;XLF-WT; settings: 1 uM each; described as similar to WT-WT; EMSA: 10 mM HEPES pH 8, 75 mM KCl, 0.5 mM EDTA, 0.5 mM DTT, 5% glycerol, RT 30 min, 200 ng DNA/10 ul; SPR: 20 mM HEPES pH 8, 75 mM KCl, 10% glycerol, 1 mM DTT …
[3] = system: XRCC4-Asp;XLF-Asp; settings: 1 uM each; koff_fast 4-fold faster than WT-WT; EMSA: 10 mM HEPES pH 8, 75 mM KCl, 0.5 mM EDTA, 0.5 mM DTT, 5% glycerol, RT 30 min, 200 ng DNA/10 ul; SPR: 20 mM HEPES pH 8, 75 mM KCl, 10% glycerol, 1 mM DTT …
[4] = system: XRCC4-WT;XLF-Ala; settings: 1 uM each; described as similar to WT-WT; EMSA: 10 mM HEPES pH 8, 75 mM KCl, 0.5 mM EDTA, 0.5 mM DTT, 5% glycerol, RT 30 min, 200 ng DNA/10 ul; SPR: 20 mM HEPES pH 8, 75 mM KCl, 10% glycerol, 1 mM DTT …
[5] = system: XRCC4-WT;XLF-WT; settings: 1 uM each; EMSA: 10 mM HEPES pH 8, 75 mM KCl, 0.5 mM EDTA, 0.5 mM DTT, 5% glycerol, RT 30 min, 200 ng DNA/10 ul; SPR: 20 mM HEPES pH 8, 75 mM KCl, 10% glycerol, 1 mM DTT …

Substance: 400 bp SPR DNA
- binding signal (fold equilibrium affinity vs WT-WT) [1]: 1
- binding signal (fold equilibrium affinity vs WT-WT) [2]: 1
- binding signal (fold equilibrium affinity vs WT-WT) [3]: 0.25
- binding signal (fold equilibrium affinity vs WT-WT) [4]: 1
- binding signal (fold equilibrium affinity (reference)) [5]: 1
